# Values joined by “and” are separate entries in the source; they are usually repeats but may differ in a detail not shown here. Equal entries are not always repeated.
# What was measured:
# [1] = target: T1, human STAT3, endogenous, in human cell lines (U251, MDA-MB-468, HeLa, MCF-10A, MCF-7, COLO205) (human, UniProt P40763 2-770); experiment: flow cytometry on PFA-fixed, methanol-permeabilised MDA-MB-468 cells, PE anti-human IgG, MFI (FL-2)
# T1 construct: whole, on cells; also called cellular antigens
# T1 sequence (P40763 2-770): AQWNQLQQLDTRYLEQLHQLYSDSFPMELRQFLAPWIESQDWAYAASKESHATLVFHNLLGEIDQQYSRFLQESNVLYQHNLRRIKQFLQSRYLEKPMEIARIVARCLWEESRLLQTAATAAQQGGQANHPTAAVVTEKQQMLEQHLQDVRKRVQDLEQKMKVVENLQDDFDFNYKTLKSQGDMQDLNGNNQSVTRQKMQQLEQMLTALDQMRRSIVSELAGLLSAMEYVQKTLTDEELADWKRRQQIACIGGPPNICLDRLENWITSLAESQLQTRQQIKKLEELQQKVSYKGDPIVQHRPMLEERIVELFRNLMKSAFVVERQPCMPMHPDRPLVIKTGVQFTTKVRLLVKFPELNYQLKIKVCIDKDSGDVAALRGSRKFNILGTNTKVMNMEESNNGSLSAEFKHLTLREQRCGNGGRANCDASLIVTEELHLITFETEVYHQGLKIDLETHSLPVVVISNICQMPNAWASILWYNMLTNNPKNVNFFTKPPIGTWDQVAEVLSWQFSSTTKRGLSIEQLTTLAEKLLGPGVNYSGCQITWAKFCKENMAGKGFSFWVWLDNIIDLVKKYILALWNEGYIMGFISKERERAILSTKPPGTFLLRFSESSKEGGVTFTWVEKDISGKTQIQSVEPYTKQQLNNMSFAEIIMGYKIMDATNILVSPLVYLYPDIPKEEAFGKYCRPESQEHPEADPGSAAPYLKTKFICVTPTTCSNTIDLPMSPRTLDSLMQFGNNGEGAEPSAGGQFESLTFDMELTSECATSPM
# Protocol: (§1) Next, the binding of the candidate anti-STAT3 antibodies to cellular targets was tested in cell binding assays using MDA-MB-435 breast cancer cells and U251 cells. The cells were seeded overnight in a 96 well plate, then fixed with PFA and permeabilized with methanol. Cells were incubated with serial dilutions of the anti-STAT3 antibody candidates ST1A5, ST3G12 and ST5G12 for one hour and 30 minutes. Following incubation, the cells were washed and incubated for 30 minutes with phycoerythrin (PE) conjugated anti-human IgG. Fluorescence was measured on an Intellicyte high-throughput flow cytometry analyzer. […] Bevacizumab (Avastin), a monoclonal antibody that inhibits vascular endothelial growth factor A (VEGF-A) was used as a negative control.
# [2] = target: T2, recombinant human STAT3 protein (human, UniProt P40763 1-770, limits assumed); experiment: ELISA in Superblock buffer, OD 450 nm; antigen named neither on the sheet nor in legend paragraph 54, taken as the antibody's antigen STAT3, ng/ml is the unit of the x axis
# T2 construct: also called recombinant human STAT3 proteins; antigen
# T2 sequence (P40763 whole entry): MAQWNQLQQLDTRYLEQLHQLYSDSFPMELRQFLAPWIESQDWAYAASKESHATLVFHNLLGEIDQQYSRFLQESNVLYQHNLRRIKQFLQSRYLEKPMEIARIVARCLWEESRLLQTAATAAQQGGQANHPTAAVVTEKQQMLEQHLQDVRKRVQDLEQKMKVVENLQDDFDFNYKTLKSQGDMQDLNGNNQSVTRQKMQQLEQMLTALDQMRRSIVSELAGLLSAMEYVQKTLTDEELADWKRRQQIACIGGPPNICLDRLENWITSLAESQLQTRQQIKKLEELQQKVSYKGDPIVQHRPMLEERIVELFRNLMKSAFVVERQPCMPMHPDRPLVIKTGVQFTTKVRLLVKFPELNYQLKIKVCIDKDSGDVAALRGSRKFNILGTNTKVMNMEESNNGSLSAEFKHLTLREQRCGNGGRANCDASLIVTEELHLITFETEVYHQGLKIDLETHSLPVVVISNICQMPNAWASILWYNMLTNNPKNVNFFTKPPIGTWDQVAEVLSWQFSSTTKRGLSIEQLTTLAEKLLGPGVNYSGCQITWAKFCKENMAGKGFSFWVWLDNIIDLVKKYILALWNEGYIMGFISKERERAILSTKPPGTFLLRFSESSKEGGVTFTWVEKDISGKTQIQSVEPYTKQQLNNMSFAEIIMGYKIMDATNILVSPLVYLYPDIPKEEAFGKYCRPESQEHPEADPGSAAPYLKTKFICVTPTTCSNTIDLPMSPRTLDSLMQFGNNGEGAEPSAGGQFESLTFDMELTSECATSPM
# [3] = target: T3, recombinant human STAT3-GST (human, UniProt P40763 1-770, limits assumed); experiment: SPR (Biacore T200), antibody captured on anti-human Fc, STAT3-GST as analyte, 1:1 model
# T3 construct: Analyte in the Biacore assay; not shown: GST (glutathione S-transferase) tag
# T3 sequence (P40763 whole entry): as above
# Protocol: Anti-human Fc antibody (GE, BR-1008-39) was immobilized on a CM5 sensor chip to approximately 1000 RU using standard NHS/EDC coupling methodology. Antibodies (approximately 10 ug/ml) were captured for 60 seconds at a flow rate of 10 ul/min Recombinant human STAT3-GST was serially diluted 2-fold into running buffer (HBS-EP+, starting from […]). All measurements were conducted at a flow rate of 30 ul/min Surfaces were regenerated with 3M MgCl₂ (from human antibody kit) for 60 seconds. A 1:1 (Langmuir) binding model was used to fit the data.
# [4] = target: T1, human STAT3, endogenous, in human cell …; experiment: flow cytometry on PFA-fixed, methanol-permeabilised U251 cells, PE anti-human IgG, MFI (FL-2)
# Protocol: as §1
# [5] = target: T1, human STAT3, endogenous, in human cell …; experiment: flow cytometry (HTFC) on permeabilised U251 cells, PE anti-human IgG
# Protocol: After 45 minutes at room temperature, cells were washed twice and incubated with phycoerythrin (PE) conjugated-anti-human IgG for 20 minutes at room temperature in the dark. Cells were then washed and analyzed by high throughput flow cytometry (HTFC). The results are shown in FIG. 4 for assessment of antibody binding to U251 cells.
# [6] = target: T2, recombinant human STAT3 protein; experiment: STAT3 binding ELISA, Hu-IgG-Fab detection (title on the sheet), OD 450 nm, ng/ml is the unit of the x axis
# [7] = target: T2, recombinant human STAT3 protein; experiment: ELISA on recombinant human STAT3 protein, absorbance at 450
# [8] = target: T4, mouse STAT3, endogenous, in mouse cell lines CT-26 and MC-38 (mouse, UniProt P42227 2-770); experiment: flow cytometry on fixed, permeabilised mouse CT-26 and MC-38 cells, PE anti-human IgG; antibody concentration not given
# T4 construct: whole, on cells; Intracellular protein
# T4 sequence (P42227 2-770): as the sequence (P40763 2-770) above, with E759D counted along it
# [9] = target: T2, recombinant human STAT3 protein; experiment: ELISA on recombinant human STAT3 protein, Abs 450
# human IgG [10] = experiment: ELISA in Superblock buffer, OD 450 nm; partner not named on the sheet, legend paragraph 53 says 'to human IgG', ng/ml is the unit of the x axis
# [11] = target: T2, recombinant human STAT3 protein; experiment: ELISA in Superblock buffer, OD 450 nm; antigen named neither on the sheet nor in legend paragraph 54, taken as the antibody's antigen STAT3; unit from the x axis
# human IgG [12] = experiment: ELISA in Superblock buffer, OD 450 nm; partner not named on the sheet, legend paragraph 53 says 'to human IgG'; column taken as the curve ST3G12-PS superblock; unit from the x axis
EC50 (read off the curve) [1],EC50 [2],Kd [3],koff [3],kon [3],EC50 (read off the curve) [4],EC50 (read off the curve) [5],EC50 [6],EC50 (read off the curve) [7],binding result [8],EC50 (read off the curve) [9],EC50 (human IgG [10]),EC50 [11],EC50 (human IgG [12]),Binder
~5 nM,–,–,–,–,–,–,–,–,–,–,–,–,–,"anti-STAT3 antibody ST1A5 (antibody, V domains shown, Fully human monoclonal antibody detected with anti-human IgG; also called Ab#2) VH: not shown VL: QSVLTQPPSVSKGLRQTATLTCTGNSNNVGNEGAAWLQQHQGHPPKLLSYRNFNRPSGISERFSASRSGNTASLTITGLQPEDEADYYCSAWDSSLSAWVFGGGTKLTVL"
–,0.0257 µg/mL,5.39 nM,0.000322 s⁻¹,59700 M⁻¹ s⁻¹,~4 nM,~10 nM,0.155 µg/mL,~0.007 µg/mL,binds,~0.06 µg/mL,0.122 µg/mL,–,–,"anti-STAT3 antibody ST3G12 (naked / unmodified) (antibody, V domains shown, Fully human monoclonal antibody, detected with anti-human IgG and captured with anti-human Fc; also called Ab#1; ST3G12-unmodified) VH: QVQLVQSGAEVKKPGASVKVSCKASGYTFTSYYMHWVRQAPGQGLEWMGIINPSGGSTSYAQKFQGRVTMTRDTSTSTVYMELSSLRSEDTAVYYCARSDYVHSFDIWGQGTMVTVSS VL: QPVLTQPPSASALLGASIKLTCTLSSEHSTYTVEWYQQRPGRSPQYIMNVKSDGSYNKGDGIPDRFMGSSSGADRYLTFSNLQSDDEAEYHCGESHRIDGQVGVVFGGGTKLTVL"
–,–,0.222 nM,0.00011 s⁻¹,494000 M⁻¹ s⁻¹,–,–,0.153 µg/mL,~0.007 µg/mL,–,~0.06 µg/mL and ~0.1 µg/mL,–,0.0643 µg/mL,0.186 µg/mL,"ST3G12-PS antibody conjugate (compound 901) (antibody, V domains shown, also called PS-ST3G12; Anti-STAT3-PS) VH: QVQLVQSGAEVKKPGASVKVSCKASGYTFTSYYMHWVRQAPGQGLEWMGIINPSGGSTSYAQKFQGRVTMTRDTSTSTVYMELSSLRSEDTAVYYCARSDYVHSFDIWGQGTMVTVSS VL: QPVLTQPPSASALLGASIKLTCTLSSEHSTYTVEWYQQRPGRSPQYIMNVKSDGSYNKGDGIPDRFMGSSSGADRYLTFSNLQSDDEAEYHCGESHRIDGQVGVVFGGGTKLTVL"
